Results published in the supplement of paper PMC10126150.
± gives the standard deviation of the averaged measurements.

The sequences below were run on ATP (assay: switch fluorescence ratio, 500 uM ATP over buffer (Cy3 cluster intensity, sum of 5 cycles each) (fold (ratio)); higher = stronger signal-on switching upon ATP binding; sequences stand for … in TCGTCGGCAGCGTCAGATGTGTATAAGAGACAGTTTTTTTTTTTTTTTTTTTTTTTTT…TC). Details: aptamer strand: ATP DNA aptamer (quencher-CACCTGGGGGAGTATTGCGGAGGAAGG + anchor), 100 nM annealed; ATP concentration: 500 uM.
In short: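 Cy3-labelled switching-strand clusters on a modified Illumina MiSeq flow-cell were annealed to 100 nM quencher-labelled ATP aptamer, imaged in selection buffer, then imaged after 15 min with 500 uM ATP at 22 °C. Five buffer/ATP cycles ran, with NaOH stripping and re-annealing between them. The fluorescence ratio is summed target-cycle over summed buffer-cycle Cy3 intensity per cluster, averaged per switch-domain sequence. Clusters outside 100-1000 RFU were excluded.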
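Further: ATP exposure 15 min at 22 °C before imaging.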

| Sequence | switch fluorescence ratio |
| --- | --- |
| ATATTACTAG | 0.989 ± 0.035 |
| CGGGCAACGT | 1.02 ± 0.037 |
| CGTGGGGAGC | 1.06 ± 0.11 |
| GGTGTATAAA | 0.967 ± 0.054 |
| ATAATTAGTA | 0.9455 ± 0.0079 |
| AAAAAGATTT | 1.05 ± 0.081 |
| AGTCTGGATC | 0.9959 ± 0.0084 |
| TATACCTTAA | 1.051 ± 0.0042 |
| TTCGTACGTC | 1.01 ± 0.029 |
| TAGGGGTCGG | 0.981 ± 0.048 |
| TGTTATTGTT | 1.03 ± 0.012 |
| ATGCAAAGGA | 1 ± 0.043 |
| AAGGGGGGGT | 0.999 ± 0.03 |
| AGTTAAAGCT | 1.151 ± 0.0063 |
| CAGATCGGTT | 0.964 ± 0.014 |
| TGGTGGGTGT | 0.987 ± 0.024 |
| ACAAAACGTT | 1.028 ± 0.0078 |
| CCTTCTGCCG | 1.203 ± 0.0042 |
| TTTTAGTTTG | 1.01 ± 0.035 |
| ATTGGCACT | 1.03 ± 0.018 |
| TTGTGACAGT | 1.01 ± 0.024 |
| TGGGACGTTT | 0.934 ± 0.046 |
| TTTGGTTTGA | 1 ± 0.046 |
| TAAAATAGTT | 0.972 ± 0.026 |
| ACCCAAATCA | 1.04 ± 0.019 |

| Sequence | switch fluorescence ratio |
| --- | --- |
| GCCAGGCACT | 1.005 ± 0.0077 |
| TTGAGTGTTA | 1.01 ± 0.011 |
| GTGTAAGGTT | 0.9935 ± 0.0066 |
| ATGGGGATCG | 0.99341 ± 0.00035 |
| GGGAAAGATG | 0.986 ± 0.042 |
| CGAGGGCTGA | 1.02 ± 0.015 |
| AAGGCTGCAG | 0.92 ± 0.05 |
| TATGGAGTTA | 0.986 ± 0.027 |
| GTGAAGATTG | 1.02 ± 0.032 |
| GTGATAAATG | 0.956 ± 0.021 |
| TGGTATTGCA | 0.999 ± 0.028 |
| GATGAAGCGA | 1.19 ± 0.02 |
| GACATTTGTT | 0.986 ± 0.014 |
| ATTATGGTCA | 0.994 ± 0.023 |
| GGTCAAGTTG | 0.961 ± 0.019 |
| GATGCTACTG | 1.04 ± 0.016 |
| AACATTTTTG | 0.998 ± 0.026 |
| TCATATATCT | 0.9937 ± 0.0058 |
| GAAAGGGGGC | 0.963 ± 0.041 |
| GACGCGTGTG | 1.03 ± 0.042 |
| ATCGTGTGGT | 0.9829 ± 0.0092 |
| AGTTTCAGGT | 1.005 ± 0.006 |
| CAAGATTCCA | 1.016 ± 0.0077 |
| AAGTAGATGG | 0.991 ± 0.029 |
| AATGGGGGAT | 0.988 ± 0.029 |

| Sequence | switch fluorescence ratio |
| --- | --- |
| ATGATGAGGT | 1 ± 0.017 |
| TCGTTGGGGG | 0.995 ± 0.013 |
| AGTTTTGAGA | 0.983 ± 0.022 |
| AATCCTTAAT | 1.007 ± 0.0051 |
| GTGGGGGGTC | 1.01 ± 0.062 |
| GATTCAGCGC | 0.99 ± 0.03 |
| CTATGTCAAC | 1.06 ± 0.023 |
| AGTGGGGGG | 1.0071 ± 0.001 |
| CTGAGTGTGG | 0.989 ± 0.028 |
| ACTCGGGA | 1.13 ± 0.16 |
| TGCTGTTTTT | 0.98095 ± 0.00061 |
| ATTGTTTTGT | 0.987 ± 0.051 |
| TTTGGGTGCA | 0.987 ± 0.038 |
| AAATATGGTT | 1.02 ± 0.035 |
| GGATGTAAGT | 0.97 ± 0.017 |
| AAGTTGATAA | 1 ± 0.035 |
| AGGAGAGGAT | 1.14 ± 0.28 |
| TAATTAAATT | 0.9767 ± 0.0046 |
| GATTATGCGC | 1.03 ± 0.037 |
| TTACGGGCGA | 0.998 ± 0.029 |
| TGGTCCAGCG | 0.998 ± 0.015 |
| AAGGAATTGT | 0.9729 ± 0.0085 |
| TCCAGGACCA | 1.03 ± 0.042 |
| GTTAGATACG | 1 ± 0.028 |
| GACTAACGCA | 1.25 ± 0.057 |

| Sequence | switch fluorescence ratio |
| --- | --- |
| AATCCCGGGG | 1.19 ± 0.21 |
| TGGATGACGC | 0.96 ± 0.12 |
| ACGGCCTGTT | 1.02 ± 0.017 |
| TAGGCCATAG | 1.008 ± 0.0055 |
| AAGGAGCTGA | 0.9915 ± 0.0037 |
| GGGGACGTTT | 1.03 ± 0.043 |
| ACAGTGTGGT | 1.07 ± 0.031 |
| AAGTGTAGAG | 1.027 ± 0.0092 |
| GGGGGGATGC | 1.07 ± 0.13 |
| ATAGAGACTA | 1.006 ± 0.0078 |
| ATCATATGGA | 0.985 ± 0.037 |
| GGAAAATTTT | 0.994 ± 0.033 |
| ACGGGGGATT | 1.03 ± 0.034 |
| TATAGGGAGC | 0.947 ± 0.017 |
| GATATACAGC | 1.02 ± 0.017 |
| CACGGTGCGG | 1.01 ± 0.015 |
| TGTGCGGGGT | 0.974 ± 0.012 |
| CCACACTGAT | 1.025 ± 0.0025 |
| ACGGTTTCTT | 0.9771 ± 0.0039 |
| CCGGGAGTTG | 1.01 ± 0.024 |
| TATGAGTAGG | 0.995 ± 0.015 |
| CCTCGGTTGG | 1.011 ± 0.0035 |
| TGGGGATATA | 1.029 ± 0.0093 |
| TGTTAGTAAT | 1.019 ± 0.0087 |
| ATAATCGATT | 0.978 ± 0.011 |
